Key:
[1] = molecular target: T1, FLRT3 (antigen of the binning assay of Table 2) (Homo sapiens (Human), UniProt Q9NZU0 29-528, limits assumed); experiment: antibody binning matrix (Table 2); competitor: 2F7
T1 construct: the whole entry for FLRT3 is named
T1 sequence: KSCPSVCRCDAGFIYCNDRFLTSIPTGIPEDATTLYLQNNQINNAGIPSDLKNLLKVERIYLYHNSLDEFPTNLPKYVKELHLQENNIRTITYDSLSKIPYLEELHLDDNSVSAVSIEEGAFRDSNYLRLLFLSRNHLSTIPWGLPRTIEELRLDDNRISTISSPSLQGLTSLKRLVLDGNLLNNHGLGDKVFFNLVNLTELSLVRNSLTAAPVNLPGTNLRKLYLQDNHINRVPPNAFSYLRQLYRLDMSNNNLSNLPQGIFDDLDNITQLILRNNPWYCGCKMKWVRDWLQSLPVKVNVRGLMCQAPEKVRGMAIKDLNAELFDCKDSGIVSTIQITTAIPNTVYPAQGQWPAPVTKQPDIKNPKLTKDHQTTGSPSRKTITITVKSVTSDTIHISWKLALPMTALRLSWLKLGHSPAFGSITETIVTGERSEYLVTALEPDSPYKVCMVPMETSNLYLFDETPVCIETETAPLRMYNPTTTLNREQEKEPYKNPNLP

[2] = molecular target: T2, human FLRT3 on cells (human, UniProt Q9NZU0 29-649); experiment: flow cytometry on 293T cells transfected with human FLRT3, normalised MFI, non-linear fit; Exp 2
T2 construct: also called hFLRT3
T2 sequence: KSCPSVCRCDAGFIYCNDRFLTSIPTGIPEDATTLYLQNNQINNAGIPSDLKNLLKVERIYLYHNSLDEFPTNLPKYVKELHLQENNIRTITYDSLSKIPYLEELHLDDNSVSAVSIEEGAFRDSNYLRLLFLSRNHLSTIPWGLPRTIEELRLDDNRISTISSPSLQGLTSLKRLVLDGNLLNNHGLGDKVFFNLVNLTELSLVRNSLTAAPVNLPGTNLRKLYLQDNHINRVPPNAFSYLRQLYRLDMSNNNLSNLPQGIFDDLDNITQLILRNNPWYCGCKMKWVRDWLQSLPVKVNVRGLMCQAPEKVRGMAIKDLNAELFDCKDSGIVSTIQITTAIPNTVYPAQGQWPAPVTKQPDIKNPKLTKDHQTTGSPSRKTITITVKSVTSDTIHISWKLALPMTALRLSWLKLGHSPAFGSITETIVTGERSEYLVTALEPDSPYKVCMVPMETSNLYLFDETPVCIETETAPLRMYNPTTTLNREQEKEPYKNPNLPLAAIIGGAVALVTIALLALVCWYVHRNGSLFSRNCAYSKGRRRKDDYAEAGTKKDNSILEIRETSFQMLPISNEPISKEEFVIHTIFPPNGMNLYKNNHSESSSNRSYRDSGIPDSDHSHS
Description: (§1) MFI values of each group were normalized within that group- i.e. largest value 100% and smallest value 0%.

[3] = molecular target: T2, human FLRT3 on cells; experiment: flow cytometry on 293T cells transfected with human FLRT3, normalised MFI, non-linear fit; Exp 1
Description: as §1

[4] = molecular target: T1, FLRT3 (antigen of the binning assay of …); experiment: antibody binning matrix (Table 2); competitor: 14B7
[5] = molecular target: T1, FLRT3 (antigen of the binning assay of …); experiment: antibody binning matrix (Table 2); competitor: 1H5
[6] = molecular target: T1, FLRT3 (antigen of the binning assay of …); experiment: antibody binning matrix (Table 2); competitor: 15G11
[7] = molecular target: T1, FLRT3 (antigen of the binning assay of …); experiment: antibody binning matrix (Table 2); competitor: 14D3
[8] = molecular target: T2, human FLRT3 on cells; experiment: flow cytometry on A549 cells (endogenous hFLRT3), normalised MFI, non-linear fit
Experimental: (§2) Increasing concentrations of FLRT3 antibodies bound to A549 cells that express endogenous hFLRT3 (FIG. 19). Binding curves for the top three antibodies were performed (FIG. 20A). MFI values of each group were normalized within that group- i.e. largest value 100% and smallest value 0% (FIG. 20A). EC50 values were calculated based on non-linear regression fit (FIG. 20B).

[9] = molecular target: T3, FLRT3-Fc (Homo sapiens (Human), UniProt Q9NZU0 29-528, biotin label in Example 8 (site not stated)); experiment: competition ELISA: FLRT3-Fc biotin binding to coated Unc5B-Fc with titrated antibody
T3 construct: also called FLRT3-Fc biotin; soluble FLRT3; not shown: Fc part
T3 sequence: T1 sequence
Experimental: The FLRT3 antibodies were tested for their ability to block FLRT3-Unc5B interaction in ELISA assays (FIG. 14A). The binding of FLRT3-Fc biotin to Unc5B-Fc was confirmed in the absence of blocking mAbs (FIG. 14B).

[10] = molecular target: T4, FLRT3-His monomeric fusion protein (Homo sapiens (Human), UniProt Q9NZU0 29-528); experiment: kinetic affinity measurement with FLRT3-His monomer (Table 1)
T4 construct: also called FLRT3 monomer; not shown: His tag
T4 sequence: T1 sequence

[11] = molecular target: T2, human FLRT3 on cells; experiment: flow cytometry on A549 cells (endogenous hFLRT3), normalised MFI, non-linear fit; remark: listed apart in the source
Experimental: as §2

[12] = molecular target: T1, FLRT3 (antigen of the binning assay of …); experiment: antibody binning matrix (Table 2); row '1X Kinetic' (no first antibody), column antibody taken as binder
[13] = molecular target: T2, human FLRT3 on cells; experiment: flow cytometry on 293T cells transfected with human FLRT3, normalised MFI, non-linear fit
Description: as §1

[14] = molecular target: T1, FLRT3 (antigen of the binning assay of …); experiment: antibody binning matrix (Table 2); competitor: 5C2

B1: 14B7 (antibody, V domains shown)
VH: QVQLQQSGPELVKPGASVNISCKASGYAFGNSWMNWVKQRPGKGLEWIGWIYPGDGNANYNGKFKGKATLTADKSSSTAYMQLSSLTSEDSAVYFCARALYDYDGWFAYWGQGTLVTVSA
VL: DIQMNQSPSSLSASLGDTITIACRASQNIDIWLSWYQQKPGSIPKLLIYKASNLHTGVPSRFSGSGSGTDFTLTISSLQPEDIATYYCLQGQSFPFTFGSGTKLEIK
notes: Variable domains only; also called FLRT3 mAb 14B7; antibody 14B7
[1]
  binning response (no name or unit printed): 0.771
[2]
  EC50: 1.35 nM
[3]
  EC50: 1.41 nM
[4]
  binning response (no name or unit printed): 0.0294
[5]
  binning response (no name or unit printed): 0.671
[6]
  binning response (no name or unit printed): 1.07
[7]
  binning response (no name or unit printed): 0.621
[8]
  EC50: 0.29 nM
[9]
  IC50 (read off the curve): ~2 µg/mL
[10]
  Kd: 0.349 nM
  koff: 0.000138 s⁻¹
  kon: 436000 M⁻¹ s⁻¹
[11]
  EC50: < 1 nM
[12]
  binning response (no name or unit printed): 1.73
[13]
  EC50: < 1.5 nM
[14]
  binning response (no name or unit printed): 0.0014

From US20230357384A1 (NEXTCURE, published 2023)
